The values that follow come from the supplement of paper PMC5949888.

Where only a bound is given, the exact number is not on record here.

For this data set, the system named is Saccharomyces cerevisiae PS128 hsf1 delta, HSF1(1-493) fusion. Nature of the data set: growth estimate (transactivation domain function in HSF1 fusion, heat-shock survival) (a.u. (slope of normalised read count over time)); higher = stronger growth at 37°C, i.e. more transactivation activity. The following applies: library: design library. An outline of the steps: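 The growth estimate is the slope, from a robust linear fit over time, of read counts scaled to sample totals and starting count. These counts came from Illumina MiSeq sequencing of PCR-amplified inserts, run as six barcoded replicates of one experiment. The inserts encoded designed transactivation-domain oligos fused to yeast HSF1 (amino acids 1–493) in an hsf1-deleted strain, replica-plated on –trp 5-FOA plates and incubated at 30°C or 37°C for 0, 2, 4, 6 and 8 days.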

As to EDLYSILWSAVY, the growth estimate was -0.107. For the sequence EDLYSILWSDAY, the growth estimate is 0.452.

Regarding EDLYSILWSDGY, the growth estimate was 0.303.

Consider EDLYSILWSDKY, for which the growth estimate was -0.125. EDLYSILWSDRY: the growth estimate was -0.0848. With EDLYSILWSDVA the figure was 0.126; with EDLYSILWSDVG, -0.0353. With EDLYSILWSDVK the figure was 0.0539. For the sequence EDLYSILWSDVP, the growth estimate was 0.204. In the case of EDLYSILWSDVY, the growth estimate was 0.971. For the sequence EDLYSILWSGVY, the growth estimate is -0.0514. As to EDLYSILWSPVY, the growth estimate was -0.241. For the sequence EDLYSILWSRVY, the growth estimate was -0.0908. On to EDLYSIPWSDVY, for which the growth estimate is -0.196. For EDLYSIRWSDVY, the growth estimate is -0.219.

On to EDLYSPLWSDVY, for which the growth estimate was under -0.25.

For the sequence EDPDEFSLWDSML, the growth estimate is 1.36. EDPYSILWSDVY: the growth estimate was 0.731. In the case of EDRDEFSLWDSML, the growth estimate is 0.0908. Regarding EDRYSILWSDVY, the growth estimate was -0.176. With EFADLLDLDFILSN the figure was 0.75; with EFGDLLDLDFILSN, 0.032; with EFKDLLDLDFILSN, 0.512. For EFNDGLDLDFILSN, the growth estimate was -0.0825.

Consider EFNDKLDLDFILSN, for which the growth estimate was under -0.25. With EFNDLADLDFILSN the figure was 0.121; with EFNDLGDLDFILSN, -0.0268. Consider EFNDLLALDFILSN, for which the growth estimate was -0.112.

With EFNDLLDKDFILSN, the growth estimate is -0.227.

Regarding EFNDLLDLAFILSN, the growth estimate was -0.217. For EFNDLLDLDAILSN, the growth estimate is 0.353. EFNDLLDLDFALSN: the growth estimate was 3.84.

With EFNDLLDLDFGLSN, the growth estimate is 4.29.

For EFNDLLDLDFIASN, the growth estimate is 0.58. In the case of EFNDLLDLDFIGSN, the growth estimate is 2.81. With EFNDLLDLDFIKSN the figure was -0.165.

For the sequence EFNDLLDLDFILAN, the growth estimate is under -0.25.

As for EFNDLLDLDFILGN, the growth estimate is 4.09. For EFNDLLDLDFILKN, the growth estimate was 2.1. With EFNDLLDLDFILPN the figure was 10.7. Consider EFNDLLDLDFILRN, for which the growth estimate was 5.09. EFNDLLDLDFILSA: the growth estimate was -0.12. With EFNDLLDLDFILSG the figure was 1.41; with EFNDLLDLDFILSK, 0.632; with EFNDLLDLDFILSN, 1.51. For the sequence EFNDLLDLDFILSP, the growth estimate is -0.228. With EFNDLLDLDFILSR, the growth estimate was 0.761. For EFNDLLDLDFIPSN, the growth estimate was 0.874. On to EFNDLLDLDFIRSN, for which the growth estimate is -0.0675. Turning to EFNDLLDLDFKLSN, the growth estimate was -0.099.

EFNDLLDLDFPLSN: the growth estimate is 1.64. Consider EFNDLLDLDFRLSN, for which the growth estimate was 0.0126. Regarding EFNDLLDLDKILSN, the growth estimate was -0.21. With EFNDLLDLDPILSN, the growth estimate was -0.247.

With EFNDLLDLDRILSN, the growth estimate is 0.151. Turning to EFNDLLDLGFILSN, the growth estimate is -0.244. For EFNDLLDLKFILSN, the growth estimate was -0.169. Take EFNDLLDLRFILSN: the growth estimate was under -0.25. With EFNDLLDPDFILSN the figure was -0.0736; with EFNDLLDRDFILSN, -0.0427.

Turning to EFNDLLGLDFILSN, the growth estimate was under -0.25.

On to EFNDLLKLDFILSN, for which the growth estimate was -0.0935. As to EFNDLLPLDFILSN, the growth estimate is under -0.25. For EFNDLLRLDFILSN, the growth estimate was under -0.253. On to EFNDLPDLDFILSN, for which the growth estimate is -0.195.
